T1: Human CD3eg linker (human)
T1 construct: single-chain construct; also called recombinant human CD3
T1 chain: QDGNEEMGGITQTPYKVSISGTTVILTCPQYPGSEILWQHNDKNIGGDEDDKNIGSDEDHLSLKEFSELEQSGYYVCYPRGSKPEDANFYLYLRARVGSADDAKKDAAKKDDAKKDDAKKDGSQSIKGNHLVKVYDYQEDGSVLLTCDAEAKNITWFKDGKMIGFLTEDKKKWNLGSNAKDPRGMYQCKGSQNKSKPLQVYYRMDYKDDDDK

B1: dBBDu183H A98S/dBBDu072L (antibody, name in Kabat numbering, V domains shown)
VH: QVQLVESGGGLVQPGRSLRLSCAASGFTFSNAWMHWVRQAPGKGLEWVAQIKDKGNAYAAYYAPSVKGRFTISRDDSKNSIYLQMNSLKTEDTAVYYCHYVHYSSASTVLPAFGVDAWGQGTTVTVSS
VL: DIVMTQSPLSLPVTPGEPASISCQASQELVHMNRNTYLHWYQQKPGQAPRLLIYKVSNRFPGVPDRFSGSGSGTDFTLKISRVEAEDVGVYYCAQGTSVPFTFGQGTKLEIK
B2: dBBDu183H A100H/dBBDu072L (antibody, name in Kabat numbering, V domains shown)
VH: QVQLVESGGGLVQPGRSLRLSCAASGFTFSNAWMHWVRQAPGKGLEWVAQIKDKGNAYAAYYAPSVKGRFTISRDDSKNSIYLQMNSLKTEDTAVYYCHYVHYASHSTVLPAFGVDAWGQGTTVTVSS
VL: DIVMTQSPLSLPVTPGEPASISCQASQELVHMNRNTYLHWYQQKPGQAPRLLIYKVSNRFPGVPDRFSGSGSGTDFTLKISRVEAEDVGVYYCAQGTSVPFTFGQGTKLEIK
B3: dBBDu183H A100W/dBBDu072L (antibody, name in Kabat numbering, V domains shown)
VH: QVQLVESGGGLVQPGRSLRLSCAASGFTFSNAWMHWVRQAPGKGLEWVAQIKDKGNAYAAYYAPSVKGRFTISRDDSKNSIYLQMNSLKTEDTAVYYCHYVHYASWSTVLPAFGVDAWGQGTTVTVSS
VL: DIVMTQSPLSLPVTPGEPASISCQASQELVHMNRNTYLHWYQQKPGQAPRLLIYKVSNRFPGVPDRFSGSGSGTDFTLKISRVEAEDVGVYYCAQGTSVPFTFGQGTKLEIK
B4: dBBDu183H A98Y/dBBDu072L (antibody, name in Kabat numbering, V domains shown)
VH: QVQLVESGGGLVQPGRSLRLSCAASGFTFSNAWMHWVRQAPGKGLEWVAQIKDKGNAYAAYYAPSVKGRFTISRDDSKNSIYLQMNSLKTEDTAVYYCHYVHYYSASTVLPAFGVDAWGQGTTVTVSS
VL: DIVMTQSPLSLPVTPGEPASISCQASQELVHMNRNTYLHWYQQKPGQAPRLLIYKVSNRFPGVPDRFSGSGSGTDFTLKISRVEAEDVGVYYCAQGTSVPFTFGQGTKLEIK
B5: dBBDu183H A100K/dBBDu072L (antibody, name in Kabat numbering, V domains shown)
VH: QVQLVESGGGLVQPGRSLRLSCAASGFTFSNAWMHWVRQAPGKGLEWVAQIKDKGNAYAAYYAPSVKGRFTISRDDSKNSIYLQMNSLKTEDTAVYYCHYVHYASKSTVLPAFGVDAWGQGTTVTVSS
VL: DIVMTQSPLSLPVTPGEPASISCQASQELVHMNRNTYLHWYQQKPGQAPRLLIYKVSNRFPGVPDRFSGSGSGTDFTLKISRVEAEDVGVYYCAQGTSVPFTFGQGTKLEIK
B6: dBBDu183H A100D/dBBDu072L (antibody, name in Kabat numbering, V domains shown)
VH: QVQLVESGGGLVQPGRSLRLSCAASGFTFSNAWMHWVRQAPGKGLEWVAQIKDKGNAYAAYYAPSVKGRFTISRDDSKNSIYLQMNSLKTEDTAVYYCHYVHYASDSTVLPAFGVDAWGQGTTVTVSS
VL: DIVMTQSPLSLPVTPGEPASISCQASQELVHMNRNTYLHWYQQKPGQAPRLLIYKVSNRFPGVPDRFSGSGSGTDFTLKISRVEAEDVGVYYCAQGTSVPFTFGQGTKLEIK
B7: dBBDu183H A100T/dBBDu072L (antibody, name in Kabat numbering, V domains shown)
VH: QVQLVESGGGLVQPGRSLRLSCAASGFTFSNAWMHWVRQAPGKGLEWVAQIKDKGNAYAAYYAPSVKGRFTISRDDSKNSIYLQMNSLKTEDTAVYYCHYVHYASTSTVLPAFGVDAWGQGTTVTVSS
VL: DIVMTQSPLSLPVTPGEPASISCQASQELVHMNRNTYLHWYQQKPGQAPRLLIYKVSNRFPGVPDRFSGSGSGTDFTLKISRVEAEDVGVYYCAQGTSVPFTFGQGTKLEIK
B8: dBBDu183H A100Q/dBBDu072L (antibody, name in Kabat numbering, V domains shown)
VH: QVQLVESGGGLVQPGRSLRLSCAASGFTFSNAWMHWVRQAPGKGLEWVAQIKDKGNAYAAYYAPSVKGRFTISRDDSKNSIYLQMNSLKTEDTAVYYCHYVHYASQSTVLPAFGVDAWGQGTTVTVSS
VL: DIVMTQSPLSLPVTPGEPASISCQASQELVHMNRNTYLHWYQQKPGQAPRLLIYKVSNRFPGVPDRFSGSGSGTDFTLKISRVEAEDVGVYYCAQGTSVPFTFGQGTKLEIK
B9: dBBDu183H A100R/dBBDu072L (antibody, name in Kabat numbering, V domains shown)
VH: QVQLVESGGGLVQPGRSLRLSCAASGFTFSNAWMHWVRQAPGKGLEWVAQIKDKGNAYAAYYAPSVKGRFTISRDDSKNSIYLQMNSLKTEDTAVYYCHYVHYASRSTVLPAFGVDAWGQGTTVTVSS
VL: DIVMTQSPLSLPVTPGEPASISCQASQELVHMNRNTYLHWYQQKPGQAPRLLIYKVSNRFPGVPDRFSGSGSGTDFTLKISRVEAEDVGVYYCAQGTSVPFTFGQGTKLEIK
B10: dBBDu183H A100fD/dBBDu072L (antibody, name in Kabat numbering, V domains shown)
VH: QVQLVESGGGLVQPGRSLRLSCAASGFTFSNAWMHWVRQAPGKGLEWVAQIKDKGNAYAAYYAPSVKGRFTISRDDSKNSIYLQMNSLKTEDTAVYYCHYVHYASASTVLPDFGVDAWGQGTTVTVSS
VL: DIVMTQSPLSLPVTPGEPASISCQASQELVHMNRNTYLHWYQQKPGQAPRLLIYKVSNRFPGVPDRFSGSGSGTDFTLKISRVEAEDVGVYYCAQGTSVPFTFGQGTKLEIK
B11: dBBDu183H A98W/dBBDu072L (antibody, name in Kabat numbering, V domains shown)
VH: QVQLVESGGGLVQPGRSLRLSCAASGFTFSNAWMHWVRQAPGKGLEWVAQIKDKGNAYAAYYAPSVKGRFTISRDDSKNSIYLQMNSLKTEDTAVYYCHYVHYWSASTVLPAFGVDAWGQGTTVTVSS
VL: DIVMTQSPLSLPVTPGEPASISCQASQELVHMNRNTYLHWYQQKPGQAPRLLIYKVSNRFPGVPDRFSGSGSGTDFTLKISRVEAEDVGVYYCAQGTSVPFTFGQGTKLEIK
B12: dBBDu183H A100V/dBBDu072L (antibody, name in Kabat numbering, V domains shown)
VH: QVQLVESGGGLVQPGRSLRLSCAASGFTFSNAWMHWVRQAPGKGLEWVAQIKDKGNAYAAYYAPSVKGRFTISRDDSKNSIYLQMNSLKTEDTAVYYCHYVHYASVSTVLPAFGVDAWGQGTTVTVSS
VL: DIVMTQSPLSLPVTPGEPASISCQASQELVHMNRNTYLHWYQQKPGQAPRLLIYKVSNRFPGVPDRFSGSGSGTDFTLKISRVEAEDVGVYYCAQGTSVPFTFGQGTKLEIK
B13: dBBDu183H A98V/dBBDu072L (antibody, name in Kabat numbering, V domains shown)
VH: QVQLVESGGGLVQPGRSLRLSCAASGFTFSNAWMHWVRQAPGKGLEWVAQIKDKGNAYAAYYAPSVKGRFTISRDDSKNSIYLQMNSLKTEDTAVYYCHYVHYVSASTVLPAFGVDAWGQGTTVTVSS
VL: DIVMTQSPLSLPVTPGEPASISCQASQELVHMNRNTYLHWYQQKPGQAPRLLIYKVSNRFPGVPDRFSGSGSGTDFTLKISRVEAEDVGVYYCAQGTSVPFTFGQGTKLEIK
B14: dBBDu183H A100E/dBBDu072L (antibody, name in Kabat numbering, V domains shown)
VH: QVQLVESGGGLVQPGRSLRLSCAASGFTFSNAWMHWVRQAPGKGLEWVAQIKDKGNAYAAYYAPSVKGRFTISRDDSKNSIYLQMNSLKTEDTAVYYCHYVHYASESTVLPAFGVDAWGQGTTVTVSS
VL: DIVMTQSPLSLPVTPGEPASISCQASQELVHMNRNTYLHWYQQKPGQAPRLLIYKVSNRFPGVPDRFSGSGSGTDFTLKISRVEAEDVGVYYCAQGTSVPFTFGQGTKLEIK
B15: dBBDu183H A100Y/dBBDu072L (antibody, name in Kabat numbering, V domains shown)
VH: QVQLVESGGGLVQPGRSLRLSCAASGFTFSNAWMHWVRQAPGKGLEWVAQIKDKGNAYAAYYAPSVKGRFTISRDDSKNSIYLQMNSLKTEDTAVYYCHYVHYASYSTVLPAFGVDAWGQGTTVTVSS
VL: DIVMTQSPLSLPVTPGEPASISCQASQELVHMNRNTYLHWYQQKPGQAPRLLIYKVSNRFPGVPDRFSGSGSGTDFTLKISRVEAEDVGVYYCAQGTSVPFTFGQGTKLEIK
B16: dBBDu183H A100N/dBBDu072L (antibody, name in Kabat numbering, V domains shown)
VH: QVQLVESGGGLVQPGRSLRLSCAASGFTFSNAWMHWVRQAPGKGLEWVAQIKDKGNAYAAYYAPSVKGRFTISRDDSKNSIYLQMNSLKTEDTAVYYCHYVHYASNSTVLPAFGVDAWGQGTTVTVSS
VL: DIVMTQSPLSLPVTPGEPASISCQASQELVHMNRNTYLHWYQQKPGQAPRLLIYKVSNRFPGVPDRFSGSGSGTDFTLKISRVEAEDVGVYYCAQGTSVPFTFGQGTKLEIK
B17: dBBDu183H A100F/dBBDu072L (antibody, name in Kabat numbering, V domains shown)
VH: QVQLVESGGGLVQPGRSLRLSCAASGFTFSNAWMHWVRQAPGKGLEWVAQIKDKGNAYAAYYAPSVKGRFTISRDDSKNSIYLQMNSLKTEDTAVYYCHYVHYASFSTVLPAFGVDAWGQGTTVTVSS
VL: DIVMTQSPLSLPVTPGEPASISCQASQELVHMNRNTYLHWYQQKPGQAPRLLIYKVSNRFPGVPDRFSGSGSGTDFTLKISRVEAEDVGVYYCAQGTSVPFTFGQGTKLEIK
B18: dBBDu183H A100G/dBBDu072L (antibody, name in Kabat numbering, V domains shown)
VH: QVQLVESGGGLVQPGRSLRLSCAASGFTFSNAWMHWVRQAPGKGLEWVAQIKDKGNAYAAYYAPSVKGRFTISRDDSKNSIYLQMNSLKTEDTAVYYCHYVHYASGSTVLPAFGVDAWGQGTTVTVSS
VL: DIVMTQSPLSLPVTPGEPASISCQASQELVHMNRNTYLHWYQQKPGQAPRLLIYKVSNRFPGVPDRFSGSGSGTDFTLKISRVEAEDVGVYYCAQGTSVPFTFGQGTKLEIK
B19: dBBDu183H A98T/dBBDu072L (antibody, name in Kabat numbering, V domains shown)
VH: QVQLVESGGGLVQPGRSLRLSCAASGFTFSNAWMHWVRQAPGKGLEWVAQIKDKGNAYAAYYAPSVKGRFTISRDDSKNSIYLQMNSLKTEDTAVYYCHYVHYTSASTVLPAFGVDAWGQGTTVTVSS
VL: DIVMTQSPLSLPVTPGEPASISCQASQELVHMNRNTYLHWYQQKPGQAPRLLIYKVSNRFPGVPDRFSGSGSGTDFTLKISRVEAEDVGVYYCAQGTSVPFTFGQGTKLEIK
B20: dBBDu183H A100S/dBBDu072L (antibody, name in Kabat numbering, V domains shown)
VH: QVQLVESGGGLVQPGRSLRLSCAASGFTFSNAWMHWVRQAPGKGLEWVAQIKDKGNAYAAYYAPSVKGRFTISRDDSKNSIYLQMNSLKTEDTAVYYCHYVHYASSSTVLPAFGVDAWGQGTTVTVSS
VL: DIVMTQSPLSLPVTPGEPASISCQASQELVHMNRNTYLHWYQQKPGQAPRLLIYKVSNRFPGVPDRFSGSGSGTDFTLKISRVEAEDVGVYYCAQGTSVPFTFGQGTKLEIK

Target: T1, Human CD3eg linker
Assay: SPR, vs unmutated H183/L072

Point of comparison: B12, “fold change of affinity” value 1.2 fold. Against it:
- B1 — lower, 1 fold
- B2 — the same, 1.2 fold
- B3 — higher, 1.9 fold
- B4 — higher, 25.1 fold
- B5 — higher, 1.9 fold
- B6 — lower, 0.5 fold
- B7 — lower, 0.9 fold
- B8 — lower, 0.8 fold
- B9 — higher, 2.1 fold
- B10 — lower, 0.4 fold
- B11 — higher, 7 fold
- B13 — higher, 4.7 fold
- B14 — lower, 0.5 fold
- B15 — higher, 1.7 fold
- B16 — lower, 0.8 fold
- B17 — higher, 1.4 fold
- B18 — higher, 1.4 fold
- B19 — higher, 2 fold
- B20 — lower, 1.1 fold

Reference: patent publication US20210388087A1 (Chugai, published 2021)
